Assay [1] deals with T1, Human PD-1 (Swiss-Prot entry Q15116), full length, on cells (human, UniProt Q15116 21-288).
T1 construct: Full length open reading frame of hPD-1 stably expressed on CHO-K1 cells; also endogenous PD-1 on CD3/CD28-stimulated human CD3+ T cells and PD-1 on transfected Jurkat cells; also called hPD-1; hPDCD1
Briefly: CELISA on CHO-K1.hPDCD1 cells. How it is done: (§1) To further characterize these mutant hPD-1 antibodies they were tested for binding to hPD-1 in CELISA format using CHO-K1 cells (American Type Culture Collection, Manassas, Va.), stably transfected with cDNA encoding the full length open reading frame of hPDCD1 (hPD-1), subcloned into the pCI-neo vector (Promega). Parental CHO-K1 or CHO-K1.hPDCD1 cells were seeded in culture medium (DMEM-F12 (Gibco) with 10% Fetal Bovine Serum (Hyclone) and Pen/Strep (Gibco)) in tissue culture plates and incubated for 48 hours at 37° C. Subsequently culture medium was removed and cells were incubated for 1 hour at 37° C. with the mutant hPD-1 antibodies (10 μg/ml (=66 nM) and dilutions thereof). Next, cells were washed with Phosphate-Buffered Saline/0.05% Tween (PBST) and incubated for 1 hour at 37° C. with Goat-anti-human IgG-HRP (Southern Biotech). Subsequently, cells were washed 3 times with PBST and anti-hPD1 immunoreactivity was visualized with 100 al TMB Stabilized Chromagen (Invitrogen). Reactions were stopped with 100 al 0.5 M H2SO4 and absorbances were read at 450 and 610 nm. […] Blockade of hPD-L1 binding by the mutant hPD-1 antibodies was tested in CELISA format. Parental CHO-K1 or CHO-K1.hPDCD1 cells were seeded in tissue culture plates and incubated for 72 hours at 37° C. in culture medium. Subsequently culture medium was removed and cells were incubated for 1 hour with the mutant hPD-1 antibodies (10 μg/ml (=66 nM) and dilutions thereof) at 37° C. […] Cells were then washed three times with PBST followed by addition of Streptavidin-HRP conjugate on the cells, which was incubated for 1 hour at 37° C. […] Reactions were stopped with 100 al 0.5 M H2SO4 and absorbances were read at 450 and 610 nm. Calculated IC50 values in Table 12 for the blockade of hPD-L1 represent the concentration at which half of the inhibition is observed.

Assay [2] has as its target T1, Human PD-1 (Swiss-Prot entry Q15116), …. In words: CELISA on CHO-K1.hPDCD1 cells; blocking of biotinylated hPD-L1 Fc. As for the experimental part:
as §1

In general, EC50 refers to the concentration giving half of the maximal effect. A higher EC50 goes with a need for much substance. What is called IC50 is the concentration that gives 50% inhibition.

T1 sequence (Q15116 21-288, one chain of several): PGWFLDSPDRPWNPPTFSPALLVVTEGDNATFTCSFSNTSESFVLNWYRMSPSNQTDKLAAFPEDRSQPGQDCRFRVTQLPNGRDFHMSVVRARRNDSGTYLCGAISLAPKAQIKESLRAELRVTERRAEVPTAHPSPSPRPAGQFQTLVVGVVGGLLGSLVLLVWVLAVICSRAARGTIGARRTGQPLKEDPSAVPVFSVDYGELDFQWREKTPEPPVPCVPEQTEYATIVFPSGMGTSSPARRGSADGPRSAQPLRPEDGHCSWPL

B1: hPD1.29H5_A9P_I28T_T31S_L4 (antibody, V domains shown)
VH: EVQLVQSGPEVKKPGASVKVSCKASGYTFTSYYIHWVKQAPGKGLEWIGWIFPGDVSTQYNEKFQDKATITVDKSASTAYMQLSSLRSEDTAVYYCTREAYDYAVYWGQGTLVTVSS
VL: DIQMTQAPSSLSASVGDRVTITCKASQNVDTNVAWFQQKPGKAPKSLIFSASYRYSGVPSRFSGSGSGTDFTLTISSLQPEDFATYYCQQYNNYPFTFGGGTKLEIK
notes: Mutant of hPD1.29H5L4 (human IgG4 S241P kappa format of the parent)
As for B1, the EC50 in assay [1] amounted to 0.3 nM. For the same molecule, half-maximal inhibition in assay [2] (IC50) required 1.2 nM.

B2: hPD1.29H5_T31D_L4 (antibody, V domains shown)
VH: EVQLVQSGAEVKKPGASVKVSCKASGYIFTDYYIHWVKQAPGKGLEWIGWIFPGDVSTQYNEKFQDKATITVDKSASTAYMQLSSLRSEDTAVYYCTREAYDYAVYWGQGTLVTVSS
VL: DIQMTQAPSSLSASVGDRVTITCKASQNVDTNVAWFQQKPGKAPKSLIFSASYRYSGVPSRFSGSGSGTDFTLTISSLQPEDFATYYCQQYNNYPFTFGGGTKLEIK
notes: as for B1
B2: it took 0.4 nM to reach a half-maximal effect in assay [1] (EC50). This molecule displayed an IC50 in assay [2] of 1.7 nM.

B3: hPD1.29H5_I28D_Y32D_L4 (antibody, V domains shown)
VH: EVQLVQSGAEVKKPGASVKVSCKASGYDFTTDYIHWVKQAPGKGLEWIGWIFPGDVSTQYNEKFQDKATITVDKSASTAYMQLSSLRSEDTAVYYCTREAYDYAVYWGQGTLVTVSS
VL: DIQMTQAPSSLSASVGDRVTITCKASQNVDTNVAWFQQKPGKAPKSLIFSASYRYSGVPSRFSGSGSGTDFTLTISSLQPEDFATYYCQQYNNYPFTFGGGTKLEIK
notes: IgG4 S241P kappa format of the parent
As for B3, in assay [1], the response was half-maximal at 0.4 nM (EC50). For the same molecule, the midpoint of inhibition in assay [2], the IC50, lay at 1.3 nM.

B4: hPD1.29H5_A9P_K12V_L4 (antibody, V domains shown)
VH: EVQLVQSGPEVVKPGASVKVSCKASGYIFTTYYIHWVKQAPGKGLEWIGWIFPGDVSTQYNEKFQDKATITVDKSASTAYMQLSSLRSEDTAVYYCTREAYDYAVYWGQGTLVTVSS
VL: DIQMTQAPSSLSASVGDRVTITCKASQNVDTNVAWFQQKPGKAPKSLIFSASYRYSGVPSRFSGSGSGTDFTLTISSLQPEDFATYYCQQYNNYPFTFGGGTKLEIK
notes: as for B1
Turning to B4, the EC50 in assay [1] amounted to 0.4 nM. In assay [2], this molecule displayed an IC50 of 1.3 nM.

B5: hPD1.29H5_K12V_L4 (antibody, V domains shown)
VH: EVQLVQSGAEVVKPGASVKVSCKASGYIFTTYYIHWVKQAPGKGLEWIGWIFPGDVSTQYNEKFQDKATITVDKSASTAYMQLSSLRSEDTAVYYCTREAYDYAVYWGQGTLVTVSS
VL: DIQMTQAPSSLSASVGDRVTITCKASQNVDTNVAWFQQKPGKAPKSLIFSASYRYSGVPSRFSGSGSGTDFTLTISSLQPEDFATYYCQQYNNYPFTFGGGTKLEIK
notes: as for B1
Turning to B5, in assay [1], a half-maximal response (EC50) required 0.4 nM. The molecule also came in with an IC50 in assay [2] of 1.4 nM.

B6: hPD1.29H5_T30D_L4 (antibody, V domains shown)
VH: EVQLVQSGAEVKKPGASVKVSCKASGYIFDTYYIHWVKQAPGKGLEWIGWIFPGDVSTQYNEKFQDKATITVDKSASTAYMQLSSLRSEDTAVYYCTREAYDYAVYWGQGTLVTVSS
VL: DIQMTQAPSSLSASVGDRVTITCKASQNVDTNVAWFQQKPGKAPKSLIFSASYRYSGVPSRFSGSGSGTDFTLTISSLQPEDFATYYCQQYNNYPFTFGGGTKLEIK
notes: as for B1
The molecule B6 showed an EC50 in assay [1] of 0.3 nM. In assay [2], this molecule displayed an IC50 of 1.6 nM.

B7: hPD1.29H5_A9P_L4 (antibody, V domains shown)
VH: EVQLVQSGPEVKKPGASVKVSCKASGYIFTTYYIHWVKQAPGKGLEWIGWIFPGDVSTQYNEKFQDKATITVDKSASTAYMQLSSLRSEDTAVYYCTREAYDYAVYWGQGTLVTVSS
VL: DIQMTQAPSSLSASVGDRVTITCKASQNVDTNVAWFQQKPGKAPKSLIFSASYRYSGVPSRFSGSGSGTDFTLTISSLQPEDFATYYCQQYNNYPFTFGGGTKLEIK
notes: as for B1
In the case of B7, the EC50 in assay [1] came to 0.4 nM. Moreover, in assay [2], the IC50 was determined as 1.4 nM.

B8: hPD1.29H5_A9P_K12V_I28T_T31S_L4 (antibody, V domains shown)
VH: EVQLVQSGPEVVKPGASVKVSCKASGYTFTSYYIHWVKQAPGKGLEWIGWIFPGDVSTQYNEKFQDKATITVDKSASTAYMQLSSLRSEDTAVYYCTREAYDYAVYWGQGTLVTVSS
VL: DIQMTQAPSSLSASVGDRVTITCKASQNVDTNVAWFQQKPGKAPKSLIFSASYRYSGVPSRFSGSGSGTDFTLTISSLQPEDFATYYCQQYNNYPFTFGGGTKLEIK
notes: as for B1
In assay [1], B8 yielded an EC50 of 0.3 nM. Also, in assay [2], the IC50 was determined as 1.2 nM.

B9: hPD1.29H5_I28T_T31S_L4 (antibody, V domains shown)
VH: EVQLVQSGAEVKKPGASVKVSCKASGYTFTSYYIHWVKQAPGKGLEWIGWIFPGDVSTQYNEKFQDKATITVDKSASTAYMQLSSLRSEDTAVYYCTREAYDYAVYWGQGTLVTVSS
VL: DIQMTQAPSSLSASVGDRVTITCKASQNVDTNVAWFQQKPGKAPKSLIFSASYRYSGVPSRFSGSGSGTDFTLTISSLQPEDFATYYCQQYNNYPFTFGGGTKLEIK
notes: as for B1
Take B9: the EC50 in assay [1] came to 0.3 nM. Besides, the IC50 in assay [2] is 1.1 nM.

B10: hPD1.29H5_I28D_L4 (antibody, V domains shown)
VH: EVQLVQSGAEVKKPGASVKVSCKASGYDFTTYYIHWVKQAPGKGLEWIGWIFPGDVSTQYNEKFQDKATITVDKSASTAYMQLSSLRSEDTAVYYCTREAYDYAVYWGQGTLVTVSS
VL: DIQMTQAPSSLSASVGDRVTITCKASQNVDTNVAWFQQKPGKAPKSLIFSASYRYSGVPSRFSGSGSGTDFTLTISSLQPEDFATYYCQQYNNYPFTFGGGTKLEIK
notes: as for B1
In assay [1], B10 showed an EC50 of 0.3 nM. The molecule further gave a 50% inhibitory concentration (IC50) in assay [2] of 1.6 nM.

B11: hPD1.29H5_I28D_T31D_L4 (antibody, V domains shown)
VH: EVQLVQSGAEVKKPGASVKVSCKASGYDFTDYYIHWVKQAPGKGLEWIGWIFPGDVSTQYNEKFQDKATITVDKSASTAYMQLSSLRSEDTAVYYCTREAYDYAVYWGQGTLVTVSS
VL: DIQMTQAPSSLSASVGDRVTITCKASQNVDTNVAWFQQKPGKAPKSLIFSASYRYSGVPSRFSGSGSGTDFTLTISSLQPEDFATYYCQQYNNYPFTFGGGTKLEIK
notes: as for B1
In assay [1], B11 had an EC50 of 0.4 nM. Further, the IC50 in assay [2] came to 1.4 nM.

B12: hPD1.29H5_I28D_T30D_L4 (antibody, V domains shown)
VH: EVQLVQSGAEVKKPGASVKVSCKASGYDFDTYYIHWVKQAPGKGLEWIGWIFPGDVSTQYNEKFQDKATITVDKSASTAYMQLSSLRSEDTAVYYCTREAYDYAVYWGQGTLVTVSS
VL: DIQMTQAPSSLSASVGDRVTITCKASQNVDTNVAWFQQKPGKAPKSLIFSASYRYSGVPSRFSGSGSGTDFTLTISSLQPEDFATYYCQQYNNYPFTFGGGTKLEIK
notes: as for B1
Turning to B12, in assay [1], the midpoint of the response, the EC50, lay at 0.4 nM. Besides, in assay [2], inhibition was half-maximal at 1.6 nM (IC50).

B13: hPD1.29H5_Y32D_L4 (antibody, V domains shown)
VH: EVQLVQSGAEVKKPGASVKVSCKASGYIFTTDYIHWVKQAPGKGLEWIGWIFPGDVSTQYNEKFQDKATITVDKSASTAYMQLSSLRSEDTAVYYCTREAYDYAVYWGQGTLVTVSS
VL: DIQMTQAPSSLSASVGDRVTITCKASQNVDTNVAWFQQKPGKAPKSLIFSASYRYSGVPSRFSGSGSGTDFTLTISSLQPEDFATYYCQQYNNYPFTFGGGTKLEIK
notes: as for B3
B13 came in with a concentration giving a half-maximal response (EC50) in assay [1] of 0.3 nM. For the same molecule, the IC50 in assay [2] is 1.4 nM.

B14: hPD1.29H5_K12V_I28T_T31S_L4 (antibody, V domains shown)
VH: EVQLVQSGAEVVKPGASVKVSCKASGYTFTSYYIHWVKQAPGKGLEWIGWIFPGDVSTQYNEKFQDKATITVDKSASTAYMQLSSLRSEDTAVYYCTREAYDYAVYWGQGTLVTVSS
VL: DIQMTQAPSSLSASVGDRVTITCKASQNVDTNVAWFQQKPGKAPKSLIFSASYRYSGVPSRFSGSGSGTDFTLTISSLQPEDFATYYCQQYNNYPFTFGGGTKLEIK
notes: as for B1
For the molecule B14, the midpoint of the response in assay [1], the EC50, lay at 0.3 nM. Besides, the 50% inhibitory concentration (IC50) in assay [2] amounted to 1.2 nM.

The record behind these values is patent US20180030137A1 (ADURO BIOTECH HOLDINGS EUROPE B V, published 2018).
